Reference: US20220153822A1 (ALYTAS THERAPEUTICS, published 2022)

Target: T1, Perilipin epitope 5 peptide AKPSLLSRVGALTNT (SEQ ID NO. 332) (human, Biotin-PEG Spacer and GGSGGS Linker (SEQ ID NO. 438) at the N-terminus, or Biotin-PEG Spacer and AAAAA Linker (SEQ ID NO. 439) at the C-terminus)
T1 construct: Two biotinylated variants were used for selection and ELISA; On the peptide array it stood without biotin; also called target peptide
T1 peptide: AKPSLLSRVGALTNT
Test: phage display selection and ELISA on biotinylated target peptide

Row | Binder | binding result
1 | Antibody No. 13 (antibody, V domains shown, human IgG1, lambda or kappa light chain; also called 432-G09) VH: QVQLVQSGGGLVQPGRSLRLSCAASGFTFDDYAMHWVRQAPGKGLEWVSGISWNSGSIGYADSVKGRFTISRDNAKNSLYLQMNSLRAEDTALYYCAKEDGSYALDYWGQGTLVTVSS VL: not shown | binds
2 | Antibody No. 34 (antibody, V domains shown, human IgG1, lambda or kappa light chain; also called 447-B01) VH: QVQLVESGGGLVQPGRSLRLSCAASGFTFDDYAMHWVRQAPGKGLEWVSGISWNSGSIGYADSVKGRFTISRDNAKNSLYLQMNSLRAEDTALYYCAKEGGDSDFDYWGQGTLVTVSS VL: not shown | binds

Target: T2, Perilipin epitope 6 peptide EVRVPWLHSLAAAQE (SEQ ID NO. 333) (human, Biotin-PEG Spacer and GGSGGS Linker (SEQ ID NO. 438) at the N-terminus, or Biotin-PEG Spacer and AAAAA Linker (SEQ ID NO. 439) at the C-terminus)
T2 construct: Two biotinylated variants were used for selection and ELISA; On the peptide array it stood without biotin; also called target peptide
T2 peptide: EVRVPWLHSLAAAQE
Test: as above

Row | Binder | binding result
3 | Antibody No. 55 (antibody, V domains shown, human IgG1, lambda or kappa light chain; also called 447-C08) VH: QVQLVQSGAEVKKPGASVKVSCKASGYTFTSYYMHWVRQAPGQGLEWMGIINPSGGSTSYAQKFQGRVTMTRDTSTSTVYMELSSLRSEDTAVYYCARDDYGDYWGQGTLVTVSS VL: QSALTQPASVSGSPGQSITIPCTGTSSDVGGYNYVSWYQQHPGKAPKLMIYEVSNRPSGVSNRFSGSKSGNTASLTISGLQAEDEADYYCSSYTSSSFSFGTGTKLTVL | binds
4 | Antibody No. 31 (antibody, V domains shown, human IgG1, lambda or kappa light chain; also called 448-E06) VH: EVQLLESGGGVVQPGRSLRLSCAASGFTFSSYAMHWVRQAPGKGLEWVAVISYDGSNKYYADSVKGRFTISRDNSKNTVSLQMSSLRADDTAIYYCVKDTILIDWGQGTLVTVSS VL: not shown | binds
5 | Antibody No. 46 (antibody, V domains shown, human IgG1, lambda or kappa light chain; also called 447-B07) VH: QVQLVQSGGGVVQPGRSLRLSCAASGFTFSSYAMHWVRQAPGKGLEWVAVISYDGSNKYYADSVKGRFTISRDNSKNTLYLQMNSLRAEDTAVYYCARDQYDILTGYGGTALDYWGQGTLVTVSS VL: QSALTQPPSASGSPGQSVTISCTGTSSDVGGYNYVSWYQQHPGEAPKLMIYEVSKRPSGVPDRFSGSKSGNTASLTVSGLQAEDEADYYCSSYAGSNNLVFGGGTKLTVL | binds
6 | Antibody No. 40 (antibody, V domains shown, human IgG1, lambda or kappa light chain; also called 447-F11) VH: EVQLLESGGGLVKPGGSLRLSCAASGFTFSDYYMSWIRQAPGKGLEWVSYISSSSSYTNYADSVKGRFTISRDNAKNSLYLQMNSLRAEDTAVYYCARLSTVTRAFDIWGQGTMVTVSS VL: DIQLTQSPSSVSASVGDRVTITCRASQGISSWLAWYQQKPGKAPKLLIYAASSLQSGVPSRFSGSGSGTDFTLTISSLQPEDFATYYCQQANSFPPTFGQGTKLEIK | binds
7 | Antibody No. 57 (antibody, V domains shown, human IgG1, lambda or kappa light chain; also called 447-H10) VH: QVQLVESGAEVKKPGASVKVSCKASGYTFTSYYMHWVRQAPGQGLEWMGIINPSGGSTSYAQKFQGRVTMTRDTSTSTVYMELSSLRSEDTAVYYCARMTTSLGFDYWGQGTLVTVSS VL: DIQLTQSPSSVSASVGDKVTITCRASQGISNWLAWYQLKPGKAPKLLVYAASSLQSGVPSRFSGSGSGTDFTLTISNLQPEDFATYYCQQANSLPLTFGGGTRLEIK | binds
8 | Antibody No. 49 (antibody, V domains shown, human IgG1, lambda or kappa light chain; also called 448-H04) VH: not shown VL: DIVMTQSPSSVSASVGDRVTITCRASQGISSWLAWYQQKPGKAPKLLIYAASSLQSGVPSRFSGSGSGTDFTLTISSLQPEDFATYYCQQANSFPPTFGQGTKLEIK | binds
9 | Antibody No. 52 (antibody, V domains shown, human IgG1, lambda or kappa light chain; also called 448-F05) VH: QVQLVQSGAEVKKPGASVKVSCKASGYTFTSYGISWVRQAPGQGLEWMGWISAYNGNTNYAQKLQGRVTMTTDTSTSTAYMELRSLRSDDTAVYYCASWGVVGGMDVWGQGTLVTVSS VL: DIQMTQSPSSVSASVGDRVTITCRASQGISSWLAWYQQKPGKAPKLLIYAASSLQSGVPSRFSGSGSGTDFTLTISSLQPEDFATYYCQQANSFPLTFGGGTKVDIK | binds
10 | Antibody No. 39 (antibody, V domains shown, human IgG1, lambda or kappa light chain; also called 448-H05) VH: QVQLVESGGGLVQPGRSLRLSCAASGFTFDDYAMHWVRQAPGKGLEWVSGISWNSGSIGYADSVKGRFTISRDNAKNSLYLQMNSLRAEDTALYYCAKDTTWGGSYPYFDYWGQGTLVTVSS VL: not shown | binds
11 | Antibody No. 42 (antibody, V domains shown, human IgG1, lambda or kappa light chain; also called 447-B06) VH: QVQLVESGGGVVQPGRSLRLSCAASGFTFSNYAMHWVRQAPGKGLEWVAVISYDGSKKYYADSVKGRFTISRDNSKNTLYLQMNSLGAEDMAVYYCAREDPRRGGIDYWGQGTLVTVSS VL: QSVLTQPPPVSGAPGQRVTISCTGSSSNIGAGYDVHWYQQLPGTAPKLLIYGNSNRPSGVPDRFSGSKSGTSASLAITGLQAEDEADYYCQSYDSSLSGYVFGTGTKVTVL | binds
12 | Antibody No. 48 (antibody, V domains shown, human IgG1, lambda or kappa light chain; also called 447-B08) VH: EVQLVQSGGGVVQPGRSLRLSCAASGFTFSSYAMHWVRQAPGKGLEWVAVISYDGSNKYYADSVKGRFTISRDNSKNTLYLQMNSLRAEDTAVYYCAAESAYSSSWSGLRFDPWGQGTLVTVSS VL: QSVLTQPPSVSGAPGQRVTISCTGSSSNIGAGYDVHWYQQLPGTAPKLLIYGNSNRPSGVPDRFSGSKSGTSASLAITGLQAEDEADYYCQSYDSSLSGYVFGTGTKLTVL | binds
13 | Antibody No. 24 (antibody, V domains shown, human IgG1, lambda or kappa light chain; also called 447-C09) VH: not shown VL: QSVLTQPPSVSGAPGQRVTISCTGSSSNIGAGYDVHWYQQLPGTAPKLLIYGNSNRPSGVPDRFSGSKSGTSASLAITGLQAEDEADYYCQSYDSSLSGYVFGTGTKLTVL | binds
14 | Antibody No. 26 (antibody, V domains shown, human IgG1, lambda or kappa light chain; also called 447-D06) VH: EVQLLESGGGVVQPGRSLRLSCAASGFTFSSYAMHWVRQAPGKGLEWVAVISYDGSNKYYADSVKGRFTISRDNSKNTLYLQMNSLRAEDTAVYYCARELYYGPGGMDVWGQGTLVTVSS VL: QSVLTQPPSVSGAPGQRVTISCTGSSSNIGAGYDVHWYQQLPGTAPKLLIYGNSNRPSGVPDRFSGSKSGTSASLAITGLQAEDEADYYCQSYDSSLSGSVFGGGTKLTVL | binds
15 | Antibody No. 45 (antibody, V domains shown, human IgG1, lambda or kappa light chain; also called 447-E08) VH: not shown VL: QSVLTQPPSVSGAPGQRVTISCTGSSSNIGAGYDVHWYQQLPGTAPKLLIYGNSNRPSGVPDRFSGSKSGTSASLAITGLQAEDEADYYCQSYDSSLSGVVFGGGTKVTVL | binds
16 | Antibody No. 47 (antibody, V domains shown, human IgG1, lambda or kappa light chain; also called 447-A08) VH: QVQLVQSGGGVVQPGRSLRLSCAASGFTFSSYAMHWVRQAPGKGLEWVAVISYDGSNKYYADSVKGRFTISRDNSKNTLYLQMNSLRAEDTAVYYCAREAGEGVDYWGQGTLVTVSS VL: QSVLTQPPSVSGAPGQRVTISCTGSSSNIGAGYDVHWYQQLPGTAPKLLIYGNSNRPSGVPDRFSGSKSGTSASLAITGLQAEDEADYYCQSYDSSLSGYVFGTGTKLTVL | binds
17 | Antibody No. 23 (antibody, V domains shown, human IgG1, lambda or kappa light chain; also called 435-B08) VH: QVQLVQSGGGLVQPGRSLRLSCAASGFTFDDYAMHWVRQAPGKGLEWVSGISWNSGSIGYADSVKGRFTISRDNAKNSLYLQMNSLRAEDTALYYCAKDIAGGDYPVFDYWGQGTLVTVSS VL: not shown | binds
18 | Antibody No. 43 (antibody, V domains shown, human IgG1, lambda or kappa light chain; also called 447-A07) V domain 1: QVQLVQSGAEVKKPGSSVKVSCKASGGTFSSYAISWVRQAPGQGLEWMGGIIPIFGTANYAQKSQGRVTITADESTSTAYMELSSLRSEDTAVYYCARESGSGNRIPYGMDVWGQGTMVTVSS V domain 2: QSVLTQPPSVSGAPGQRVTISCTGSSSNIGAGYDVHWYQQLPGTAPKLLIYGNSNRPSGVPDRFSGSKSGTSASLAITGLQAEDEADYYCQSYDSSLSGPVVFGGGTQVTVL | binds
19 | Antibody No. 51 (antibody, V domains shown, human IgG1, lambda or kappa light chain; also called 447-E05) VH: QVQLQESGGGVVQPGRSLRLSCAASGFTFSSYAMHWVRQAPGKGLEWVAVISYDGSNKYYAGSVKGRFTISRDNSKNTLYLQMNSLRAEDTAVYYCARDWRGVYFDYWGQGTLVTVSS VL: QSALTQPASVSGSPGQSITISCTGTSSDVGGYNYVSWYQQHPGKAPKLMIYEVSNRPSGVSNRFSGSKSGNTASLTISGLQAEDEADYYCSSYTSSSTLVFGGGTKLTVL | binds
20 | Antibody No. 28 (antibody, V domains shown, human IgG1, lambda or kappa light chain; also called 447-F08) VH: QVQLVQSGGGVVQPGRSLRLSCAASGFTFSSYAMHWVRQAPGKGLEWVAVISYDGSNKYYADSVKGRFTISRDNSKNTLYLQMNSLRAEDTAVYYCARDSGVVMDYWGQGTLVTVSS VL: QSALTQPASVSGSPGQSITISCTGTSSDVGGYNYVSWYQQHPGKAPKLMIYDVSNRPSGVSNRFSGSKSGNTASLTISGLQAEDEADYYCSSYTSSSTLVFGGGTKVTVL | binds
21 | Antibody No. 41 (antibody, V domains shown, human IgG1, lambda or kappa light chain; also called 447-E10) VH: QVQLVQSGGGVVQPGRSQRLSCAASGFTFSNAWMSWVRQAPGKGLEWVSAISGSGGSTYYADSVKGRFTISRDNSKNTLYLQMNSLRAEDTAVYYCAANEGGDAFDIWGQGTMVTVSS VL: not shown | binds
22 | Antibody No. 30 (antibody, V domains shown, human IgG1, lambda or kappa light chain; also called 448-E04) VH: EVQLVQSGGGLVQPGGSLRLSCAASGFTFSSYAMSWVRQAPGKGLEWVSAISGSGGSTYYADSVKGRFTISRDNAKNSLYLQMNSLRAEDTAVYYCARVRVSDGRFDYWGQGTLVTVSS VL: not shown | binds
23 | Antibody No. 53 (antibody, V domains shown, human IgG1, lambda or kappa light chain; also called 447-G07) VH: QVQLVQSGGGVVQPGRSLRLSCAASGFTFSSYGMHWVRQAPGKGLEWVAVISYDGSNKYYADSVKGRFTISRDNSKNTLYLQMNSLRAEDTAVYYCAKDFSDAFDIWGQGTMVTVSS VL: QSVLTQPPSVSAAPGQKVTISCSGSSSNIGNNYVSWYQQLPGTAPKLLIYDNNKRPSGIPDRFSGSKSGTSATLGITGLQTGDEADYYCGTWDSSLSAVVFGGGTKVTVL | binds
24 | Antibody No. 54 (antibody, V domains shown, human IgG1, lambda or kappa light chain; also called 447-C12) VH: EVQLLESGGGVVQPGRSLRLSCAASGFTFSSYGMHWVRQAPGKGLEWVAVISYDGSNKYYADSVKGRFTISRDNSKNTLYLQMNSLRAEDTAVYYCAKGSGWYFDYWGQGTLVTVSS VL: not shown | binds
